Results on three molecules are retold here after PMC8280513, “Marmoset glutathione transferases with ketosteroid isomerase activity” (Biochemistry and Biophysics Reports, 2021).

Data set [1] deals with T1, CjaGST A1-1 (Callithrix jacchus, UniProt A0A7G0XAM3).
T1 construct: gene GSTA1; 222 amino acid residues, N-terminal hexahistidine tag
T1 sequence (A0A7G0XAM3 1-222): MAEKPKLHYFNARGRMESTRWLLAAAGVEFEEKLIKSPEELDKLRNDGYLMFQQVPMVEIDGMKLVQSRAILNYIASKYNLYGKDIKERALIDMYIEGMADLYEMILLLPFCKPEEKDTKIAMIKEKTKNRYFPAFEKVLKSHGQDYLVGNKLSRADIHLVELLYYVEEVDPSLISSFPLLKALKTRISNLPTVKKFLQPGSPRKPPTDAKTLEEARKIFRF
Kind of data set: specific activity, spectrophotometric assay. The format is biochemical.

Substrate in data set [2]: [H][C@@]12CC=C3CC(=O)CC[C@]3(C)[C@@]1([H])CC[C@]1(C)C(=O)CC[C@@]21[H]
Briefly: purified protein. Particulars: glutathione H-site; Phe111 suggested to hinder steroid binding.

Molecule `O=[N+]([O-])c1ccc(Cl)c([N+](=O)[O-])c1` [CDNB, 1-chloro-2,4-dinitrobenzene] displayed a specific activity in data set [1] of 26.1 ± 0.59 µmol/min/mg.
Same read-out and setting: the result for `S=C=NCCc1ccccc1` [PEITC, phenethyl isothiocyanate] reads 8.80 ± 1.95 µmol/min/mg.

B1: CjaGST A1-1 (Callithrix jacchus) (protein)
chain: MAEKPKLHYFNARGRMESTRWLLAAAGVEFEEKLIKSPEELDKLRNDGYLMFQQVPMVEIDGMKLVQSRAILNYIASKYNLYGKDIKERALIDMYIEGMADLYEMILLLPFCKPEEKDTKIAMIKEKTKNRYFPAFEKVLKSHGQDYLVGNKLSRADIHLVELLYYVEEVDPSLISSFPLLKALKTRISNLPTVKKFLQPGSPRKPPTDAKTLEEARKIFRF
As usually defined, the Km is the substrate concentration at which the rate is half of its maximum. A word on the kcat: it is the maximal rate divided by the concentration of active sites. The term kcat/Km denotes the second-order rate constant that governs catalysis at low substrate concentration. With B1, in data set [2], the Km was determined as 303 ± 34 µM, the kcat is 6.89 ± 0.79 s⁻¹ and the kcat/Km came to 22700 M⁻¹ s⁻¹.
